Experimental data taken from US20070172906A1 (BIOSITE, published 2007).

B1: Z3XM01011 (antibody, V domains shown)
VH: EVQLQQSGPGLVEPSQSLSITCTVSGFSLRSYGVHWVRQSPRKGLEWLGGIWSGGRIDYNAAYISRLTINKDNSKSQVFFKMNSLQADDTAIYYCVRKAIDLGDYYGMDYWGQGTSVTVSS
VL: DIVMTQFSQILSTSVGDRVSITCKASQDVGTAVAWYQQKPGQSPKLLIYWASTRHTGVPGRFTGSGSGTDFTLTIISVQSEDLADYFCQQYSSYPTFGGGTKLEIK
notes: Mouse monoclonal antibody from the same Fab phage library after one more round of panning, subcloned into a pBR322 expression vector
B2: Z1XM01701 (antibody, V domains shown)
VH: EVMLVESGGGLVKPGGSLKLSCAASGFTFSNYAMSWVRQTPAKRLEWVATISGGGGNTYYPDSVKGRFTISRDNAKNTLYLQMSSLRSEDTALYYCARHPNRFETAVDYWGQGTSVIVSS
VL: QIVLTQSPAILSASPGEKVTMTCRASSSVSSVHWYQQKPGSSPKPWIYATSNLASGVPTRFSGGGSGTSYSLTISRVEAEDAATYSCQQWSSDPPTFGGGTKLEIK
notes: It was subcloned into a pBR322 expression vector, expressed, purified and biotinylated; also called SE61z1zm-01071

Biological target: T1, Human latent protein C (Enzyme Research Labs, Catalog # HPC 1001) (human, UniProt P04070 43-197; P04070 200-461)
T1 construct: Bought protein; It was biotinylated for panning and ELISA
T1 sequence (P04070 43-197, form in doubt, chain 1 of 2): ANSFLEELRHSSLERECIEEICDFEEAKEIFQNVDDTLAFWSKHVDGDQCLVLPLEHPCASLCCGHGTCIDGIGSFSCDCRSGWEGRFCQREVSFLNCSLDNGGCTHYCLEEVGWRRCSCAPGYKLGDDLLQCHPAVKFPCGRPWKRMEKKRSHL
T1 sequence (P04070 200-461, form in doubt, chain 2 of 2): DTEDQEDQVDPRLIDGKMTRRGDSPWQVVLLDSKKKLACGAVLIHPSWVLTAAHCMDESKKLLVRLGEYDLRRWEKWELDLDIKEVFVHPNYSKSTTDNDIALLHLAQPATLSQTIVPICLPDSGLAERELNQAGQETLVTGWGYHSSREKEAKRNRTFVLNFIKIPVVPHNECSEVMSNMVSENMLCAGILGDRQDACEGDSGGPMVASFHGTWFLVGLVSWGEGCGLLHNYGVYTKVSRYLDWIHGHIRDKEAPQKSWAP
Experiment: method not stated

Row | Binder | Ka [M⁻¹]
1 | B1 | ≥ 1e+10
2 | B2 | ≥ 1e+10
